# From patent US20230399393A1, “METHODS TO EXTEND HEALTH-SPAN AND TREAT AGE-RELATED DISEASES” (National University of Singapore, priority 2020, published 2023)
# T1: IL-11Rα (Homo sapiens, UniProt Q14626)
# T1 sequence (Q14626 23-422): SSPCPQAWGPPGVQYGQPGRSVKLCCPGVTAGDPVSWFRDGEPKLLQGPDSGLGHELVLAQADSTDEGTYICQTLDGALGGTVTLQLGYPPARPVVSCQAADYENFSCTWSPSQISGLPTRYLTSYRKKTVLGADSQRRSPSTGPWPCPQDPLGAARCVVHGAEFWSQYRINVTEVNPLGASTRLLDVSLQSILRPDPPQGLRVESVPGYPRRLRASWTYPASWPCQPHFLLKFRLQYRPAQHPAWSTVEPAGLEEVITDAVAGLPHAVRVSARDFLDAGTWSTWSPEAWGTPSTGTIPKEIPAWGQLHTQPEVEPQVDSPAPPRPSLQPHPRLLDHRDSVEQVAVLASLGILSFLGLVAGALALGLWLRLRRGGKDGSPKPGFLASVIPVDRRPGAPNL
# Key:
# [1] = system: Primary human cardiac fibroblasts; test: IL-11 stimulation time course, western blot; assay type: cell-based; conditions: IL-11 10 ng/ml, 15 mins, 2, 4, 6 or 24 hours
# Experimental: FIG. 15. Western blot image showing the levels of p-LKB1, LKB1, p-mTOR, mTOR in primary human cardiac fibroblasts that are stimulated with IL11 (10 ng/ml), for 15 minutes, 2 hours, 4 hours, 6 hours, or 24 hours.
# Primary human cardiac fibroblasts were stimulated with IL-11 (10 ng/ml), for 15 mins, 2, 4, 6, or 24 hours and the levels of phosphorylated LKB1 (p-LKB1), LKB1, phosphorylated mTOR (p-mTOR) and mTOR were measured by western blot.
# [2] = target: T1, IL-11Rα; conditions: low affinity binding to IL-11Rα alone; cited from earlier work
# [3] = system: A549 cells; test: IL-11 stimulation of A549 cells overexpressing human LKB1, western blot; assay type: cell-based; conditions: IL11 10 ng/ml; AAV8 human LKB1
# Experimental: FIG. 16. IL-11 stimulates ERK-mediated phosphorylation of LKB1 serine 325(S325) and P90RSK-mediated phosphorylation of LKB1 serine 428 (S428) with subsequent inactivation of AMPK and activation of mTOR, P70RSK and S6RP. (16A) A549 cells were infected with AAV8 encoding human LKB1 (multiplicity of infection=20) for 24 hours and then stimulated with IL11 (10 ng/ml) for the indicated times (15 minutes, 2 hours, 4 hours, 6 hours, or 24 hours). Cell lysates were immunoblotted for the proteins shown. (16B) Schematic of activation of ERK (directly) and P90RSK (indirectly) by IL-11-mediated signalling and downstream effects on hallmarks of ageing. P or p; phosphorylated amino acid.
# To determine the mechanism through which IL-11 stimulates phosphorylation of LKB1, A549 cells were engineered to overexpress human LKB1 (AA8-LKB1 in FIG. 16A) and treated with IL-11.
# [4] = system: Primary human hepatic stellate cells; test: IL-11 stimulation in the presence of DMSO or U0126, western blot; assay type: cell-based; conditions: IL-11 treatment 24 hours
# Experimental: FIG. 21. Western blot image showing the levels of p-ERK, ERK, p-P90RSK, P90RSK, p-LKB1, LKB1, p-AMPK, AMPK, p-mTOR, mTOR, p-p70S6K, p70S6K, p-S6RP, S6RP, SMA, and GAPDH in primary human hepatic stellate cells that are unstimulated (BL+DMSO) or stimulated for 24 hours with IL11 in the presence DMSO or U0126 (10 μM).
# (§1) Primary human hepatic stellate cells and human hepatocytes were stimulated for 24 hours with IL-11 in the presence DMSO or U0126. As discussed in Example 4.4, the inventors observed that IL-11 treatment stimulates p-mTOR, p-70S6K and p-S6RP. In line with the inventors' hypothesis, administration of U0126 to IL-11-stimulated cells prevents ERK-mediated inactivation of LKB1/AMPK that stops IL11-induced mTORC1/P70S6K activation (FIG. 21 and FIG. 22, respectively).
# [5] = system: Human hepatic stellate cells; test: IL-11 stimulation of cells overexpressing wild-type LKB1, western blot; assay type: cell-based; conditions: IL11 10 ng/ml, 2 hours
# Experimental: (§2) FIG. 17. Human hepatic stellate cells (17A) and hepatocytes (17B) were infected with AAV8 encoding human LKB1 (multiplicity of infection=20) for 24 hours and then stimulated with IL11 (10 ng/ml) for 2 hours. Cell lysates were immunoblotted for the proteins shown.
# (§3) Human hepatic stellate cells (FIG. 17A) and human hepatocytes (FIG. 17B) were engineered to overexpress the wild-type LKB1 and a double mutant S325A, S428A (DM-LKB1). FIGS. 17A and 17B confirm that stimulation with IL-11 induces phosphorylation at […] in the WT LKB1 cells. As expected, phosphorylation is not observed in the double mutant LKB1 cells.
# [6] = system: human hepatocytes; test: as above; assay type: cell-based; conditions: IL11 10 ng/ml, 2 hours
# Experimental: as §2, §3
# [7] = system: Primary human hepatic stellate cells (HSCs); test: Increasing concentrations of IL-11 or IL-6, western blot p-LKB1/p-AMPK; assay type: cell-based; conditions: 24 hours; p-LKB1, p-AMPK
# Experimental: (§4) FIG. 23. Western blot image showing the levels of p-LKB1, LKB1, p-AMPK, AMPK in primary human hepatocytes or primary human hepatic stellate cells that are unstimulated (BL) or stimulated for 24 hours with increasing concentrations (1.25, 2.5, 5, 10 or 20 ng/ml) of IL-11 or IL-6.
# (§5) Primary human hepatic stellate cells (HSCs) and human hepatocytes were stimulated for 24 hours with increasing concentrations (1.25-20 ng/ml) of IL-11 or IL-6. […] The effect of IL-11 on these markers is observable at concentrations as low as 1.25 ng/ml in both HSCs and hepatocytes.
# [8] = system: human hepatocytes; test: as above; assay type: cell-based; conditions: 24 hours; p-LKB1, p-AMPK
# Experimental: as §4, §5
# [9] = system: human hepatocytes; test: IL-11 stimulation in the presence of DMSO or U0126, western blot; assay type: cell-based; conditions: IL-11 treatment 24 hours
# Experimental: FIG. 22. Western blot image showing the levels of p-ERK, ERK, p-P90RSK, P90RSK, p-LKB1, LKB1, p-AMPK, AMPK, p-mTOR, mTOR, p-p70S6K, p70S6K, p-S6RP, S6RP in primary human hepatocytes that are unstimulated (BL+DMSO) or stimulated for 24 hours with IL11 in the presence DMSO or U0126 (10 μM).
# as §1
molecule,measurement,setting,value
"IL-11: Interleukin 11, pleiotropic cytokine of the IL-6 family, used to stimulate cells (protein) PGPPAGSPRVSSDPRADLDSAVLLTRSLLADTRQLAAQMRDKFPADGDHSLDSLPTLAMSAGTLGSLQLPGVLTRLRVDLMSYLRHVQWLRRAGGPSLKTLEPELGALQARLERLLRRLQLLMSRLALPQAAPDQPVIPLGPPASAWGSIRAAHAILGGLHLTLDWAVRGLLLLKTRL",level of phosphorylated LKB1 and phosphorylated mTOR,[1],increases
same,Kd,[2],~22 nM
same,ERK-mediated phosphorylation of LKB1 Serine 325 (S325) and P90RSK-mediated phosphorylation of LKB1 serine 428 (S428),[3],stimulates
same,"p-mTOR, p-70S6K and p-S6RP",[4],stimulates
same,phosphorylation at S428 and S325 in the WT LKB1 cells,[5],induces
same,phosphorylation at S428 and S325 in the WT LKB1 cells,[6],induces
same,lowest concentration at which the effect on these markers is observable,[7],1.25 ng/mL
same,lowest concentration at which the effect on these markers is observable,[8],1.25 ng/mL
same,"p-mTOR, p-70S6K and p-S6RP",[9],stimulates
